Measurements published in patent US20080241152A1 (VEGENICS, published 2008).

What was measured:
[1] = molecular target: T1, KDR (VEGFR-2) expressed on porcine aortic endothelial (PAE) cells (UniProt P35968 20-1356, limits assumed); test: Scatchard analysis (125I-labelled ligand; receptor format not given, PAE/VEGFR-2 cells in the same example)
T1 construct: whole, on cells; KDR is the name of the human receptor; also called KDR/Flk-1; PAE-KDR cells
Procedure: To study receptor binding, PAE/VEGFR-2 and PAE/VEGFR-3 cells were seeded into 24-well tissue culture plates (Nunclon), which had been coated with 2% gelatin in PBS. […] The binding was allowed to proceed at room temperature for 90 minutes. The plates were then transferred onto ice and washed three times with ice-cold PBS containing 0.1% BSA. The cells were then lysed in 1 M NaOH, the lysates were collected, and the radioactivity was measured using a γ-counter.

[2] = molecular target: the molecule itself; test: chemical crosslinking, SDS-PAGE (homodimer)

T1 sequence (P35968 20-1356 limits assumed): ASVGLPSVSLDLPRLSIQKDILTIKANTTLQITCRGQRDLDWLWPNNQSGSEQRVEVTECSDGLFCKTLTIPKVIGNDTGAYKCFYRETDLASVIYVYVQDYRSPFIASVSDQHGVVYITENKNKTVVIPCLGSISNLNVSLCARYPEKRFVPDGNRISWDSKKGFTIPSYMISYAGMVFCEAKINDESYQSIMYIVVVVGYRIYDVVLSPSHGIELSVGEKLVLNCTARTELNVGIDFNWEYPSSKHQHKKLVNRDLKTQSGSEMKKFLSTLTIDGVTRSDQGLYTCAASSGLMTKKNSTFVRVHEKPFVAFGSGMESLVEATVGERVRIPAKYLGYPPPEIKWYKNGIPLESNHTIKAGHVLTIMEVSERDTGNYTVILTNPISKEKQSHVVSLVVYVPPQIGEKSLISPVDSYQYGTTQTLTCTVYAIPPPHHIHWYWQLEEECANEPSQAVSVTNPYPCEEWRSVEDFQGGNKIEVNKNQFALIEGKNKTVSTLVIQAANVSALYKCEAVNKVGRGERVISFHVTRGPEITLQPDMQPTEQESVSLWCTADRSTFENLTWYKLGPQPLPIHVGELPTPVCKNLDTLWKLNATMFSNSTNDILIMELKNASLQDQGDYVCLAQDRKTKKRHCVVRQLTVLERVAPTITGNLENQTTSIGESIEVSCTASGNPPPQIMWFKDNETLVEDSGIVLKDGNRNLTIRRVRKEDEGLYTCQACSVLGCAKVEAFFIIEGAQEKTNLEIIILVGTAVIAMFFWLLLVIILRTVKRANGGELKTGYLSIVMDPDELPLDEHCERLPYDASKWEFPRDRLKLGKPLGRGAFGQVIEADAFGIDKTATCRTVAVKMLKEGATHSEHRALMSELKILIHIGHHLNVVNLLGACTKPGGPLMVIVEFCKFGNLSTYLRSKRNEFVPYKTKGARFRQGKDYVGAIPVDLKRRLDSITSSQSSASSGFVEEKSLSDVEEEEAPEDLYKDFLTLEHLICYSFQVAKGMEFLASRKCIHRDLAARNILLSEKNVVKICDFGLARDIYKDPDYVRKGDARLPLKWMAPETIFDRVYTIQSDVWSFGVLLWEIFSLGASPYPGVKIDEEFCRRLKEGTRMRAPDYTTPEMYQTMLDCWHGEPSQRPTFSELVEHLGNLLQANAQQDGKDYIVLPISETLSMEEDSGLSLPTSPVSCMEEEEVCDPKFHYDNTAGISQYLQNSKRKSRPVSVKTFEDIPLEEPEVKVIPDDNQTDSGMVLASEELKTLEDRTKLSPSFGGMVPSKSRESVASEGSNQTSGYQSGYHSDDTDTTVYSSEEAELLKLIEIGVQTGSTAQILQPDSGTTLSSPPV

B1: VEGF-C ΔNΔCHis (ligand)
chain: TEETIKFAAAHYNTEILKSIDNEWRKTQCMPREVCIDVGKEFGVATNTFFKPPCVSVYRCGGCCNSEGLQCMNTSTSYLSKTLFEITVPLSQGPKPVTISFANHTSCRCMSKLDVYRQVHSIIHHHHHH
modifications: 125I label in the tracer used for Scatchard and competition assays
notes: also called VEGF-C ΔCΔNHis; recombinantly-matured VEGF-C
- Kd [1]: 0.41 nM
- binding result [2]: binds
